Reference: patent publication US9618524B2, “Method, composition, isolation and identification of a plaque particle and related biomarker” (Plaxgen Inc., priority 2012, dated 2017)

B1: Isoform 2 of N-acetylmuramoyl-L-alanine amidase (protein)
chain: SLPLLMDSVIQALAELEQKVPAAKTRHTASAWLMSAPNSGPHNRLYHFLLGAWSLNATELDPCPLSPELLGLTKEVARHDVREGKEYGVVLAPDGSTVAVEPLLAGLEAGLQGRRVINLPLDSMAAPWETGDTFPDVVAIAPDVRATSSPGLRDGSPDVTTADIGANTPDATKGCPDVQASLPDAKAKSPPTMVDSLLAVTLAGNLGLTFLRGSQTQSHPDLGTEGCWDQLSAPRTFTLLDPKASLLTMAFLNGALDGVILGDYLSRTPEPRPSLSHLLSQYYGAGVARDPGFRSNFRRQNGAALTSASILAQQVWGTLVLLQRLEPVHLQLQCMSQEQLAQVAANATKEFTEAFLGCPAIHPRCRWGAAPYRGRPKLLQLPLGFLYVHHTYVPAPPCTDFTRCAANMRSMQRYHQDTQGWGDIGYSFVVGSDGYVYEGRGWHWVGAHTLGHNSRGFGVAIVGNYTAALPTEAALRTVRDTLPSCAVRAGLLRPDYALLGHRQLVRTDCPGDALFDLLRTWPHFTAVSLRSLHYTARRPSVYTSSTRPLPPACNSCARTASARPPTSRRHVYSGNLGPAFAGHSAGNIPDPVTSAYAASAQPQTQPACPFPSS
B2: Ig lambda chain V-III region (protein)
chain: SELTQDPAVSVALGQTVRITCQGDSLRSYYASWYQQKPGQAPVLVIYGKNNRPSGIPDRFSGSSSGNTASLTITGAQAEDEADYYCNSRDSS
B3: Apolipoprotein C-II (protein)
chain: TQQPQQDEMPSPTFLTQVKESLSSYWESAKTAAQNLYEKTYLPAVDEKLRDLYSKSTAAMSTYTGIFTDQVLSVLKGEE
B4: Ig lambda chain V-III region LOI (protein)
chain: VTSYVLTQPPSVSVAPGQTARITCGGNNIGSKSVHWYQQKPGQAPVLVVYDDSDRPSGIPERFSGSNSGNTATLTISRVEAGDEADYYCQVWDSSSDHPT
B5: Desmoglein-1 (protein)
chain: EWIKFAAACREGEDNSKRNPIAKIHSDCAANQQVTYRISGVGIDQPPYGIFVINQKTGEINITSIVDREVTPFFIIYCRALNSMGQDLERPLELRVRVLDINDNPPVFSMATFAGQIEENSNANTLVMILNATDADEPNNLNSKIAFKIIRQEPSDSPMFIINRNTGEIRTMNNFLDREQYGQYALAVRGSDRDGGADGMSAECECNIKILDVNDNIPYMEQSSYTIEIQENTLNSNLLEIRVIDLDEEFSANWMAVIFFISGNEGNWFEIEMNERTNVGILKVVKPLDYEAMQSLQLSIGVRNKAEFHHSIMSQYKLKASAISVTVLNVIEGPVFRPGSKTYVVTGNMGSNDKVGDFVATDLDTGRPSTTVRYVMGNNPADLLAVDSRTGKLTLKNKVTKEQYNMLGGKYQGTILSIDDNLQRTCTGTININIQSFGNDDRTNTEPNTKITTNTGRQESTSSTNYDTSTTSTDSSQVYSSEPGNGAKDLLSDNVHFGPAGIGLLIMGFLVLGLVPFLMICCDCGGAPRSAAGFEPVPECSDGAIHSWAVEGPQPEPRDITTVIPQIPPDNANIIECIDNSGVYTNEYGGREMQDLGGGERMTGFELTEGVKTSGMPEICQEYSGTLRRNSMRECREGGLNMNFMESYFCQKAYAYADEDEGRPSNDCLLIYDIEGVGSPAGSVGCCSFIGEDLDDSFLDTLGPKFKKLADISLGKESYPDLDPSWPPQSTEPVCLPQETEPVVSGHPPISPHFGTTTVISESTYPSGPGVLHPKPILDPLGYGNVTVTESYTTSDTLKPSVHVHDNRPASNVVVTERVVGPISGADLHGMLEMPDLRDGSNVIVTERVIAPSSSLPTSLTIHHPRESSNVVVTERVIQPTSGMIGSLSMHPELANAHNVIVTERVVSGAGVTGISGTTGISGGIGSSGLVGTSMGAGSGALSGAGISGGGIGLSSLGGTASIGHMRSSSDHHFNQTIGSASPSTARSRITKYSTVQYSK
B6: Ig gamma-2 chain C region (protein)
chain: ASTKGPSVFPLAPCSRSTSESTAALGCLVKDYFPEPVTVSWNSGALTSGVHTFPAVLQSSGLYSLSSVVTVPSSNFGTQTYTCNVDHKPSNTKVDKTVERKCCVECPPCPAPPVAGPSVFLFPPKPKDTLMISRTPEVTCVVVDVSHEDPEVQFNWYVDGVEVHNAKTKPREEQFNSTFRVVSVLTVVHQDWLNGKEYKCKVSNKGLPAPIEKTISKTKGQPREPQVYTLPPSREEMTKNQVSLTCLVKGFYPSDISVEWESNGQPENNYKTTPPMLDSDGSFFLYSKLTVDKSRWQQGNVFSCSVMHEALHNHYTQKSLSLSPGK
B7: Complement C2 (protein)
chain: APSCPQNVNISGGTFTLSHGWAPGSLLTYSCPQGLYPSPASRLCKSSGQWQTPGATRSLSKAVCKPVRCPAPVSFENGIYTPRLGSYPVGGNVSFECEDGFILRGSPVRQCRPNGMWDGETAVCDNGAGHCPNPGISLGAVRTGFRFGHGDKVRYRCSSNLVLTGSSERECQGNGVWSGTEPICRQPYSYDFPEDVAPALGTSFSHMLGATNPTQKTKESLGRKIQIQRSGHLNLYLLLDCSQSVSENDFLIFKESASLMVDRIFSFEINVSVAIITFASEPKVLMSVLNDNSRDMTEVISSLENANYKDHENGTGTNTYAALNSVYLMMNNQMRLLGMETMAWQEIRHAIILLTDGKSNMGGSPKTAVDHIREILNINQKRNDYLDIYAIGVGKLDVDWRELNELGSKKDGERHAFILQDTKALHQVFEHMLDVSKLTDTICGVGNMSANASDQERTPWHVTIKPKSQETCRGALISDQWVLTAAHCFRDGNDHSLWRVNVGDPKSQWGKEFLIEKAVISPGFDVFAKKNQGILEFYGDDIALLKLAQKVKMSTHARPICLPCTMEANLALRRPQGSTCRDHENELLNKQSVPAHFVALNGSKLNINLKMGVEWTSCAEVVSQEKTMFPNLTDVREVVTDQFLCSGTQEDESPCKGESGGAVFLERRFRFFQVGLVSWGLYNPCLGSADKNSRKRAPRSKVPPPRDFHINLFRMQPWLRQHLGDVLNFLPL
B8: Platelet basic protein (protein)
chain: SSTKGQTKRNLAKGKEESLDSDLYAELRCMCIKTTSGIHPKNIQSLEVIGKGTHCNQVEVIATLKDGRKICLDPDAPRIKKIVQKKLAGDESAD
B9: Thyroxine-binding globulin (protein)
chain: ASPEGKVTACHSSQPNATLYKMSSINADFAFNLYRRFTVETPDKNIFFSPVSISAALVMLSFGACCSTQTEIVETLGFNLTDTPMVEIQHGFQHLICSLNFPKKELELQIGNALFIGKHLKPLAKFLNDVKTLYETEVFSTDFSNISAAKQEINSHVEMQTKGKVVGLIQDLKPNTIMVLVNYIHFKAQWANPFDPSKTEDSSSFLIDKTTTVQVPMMHQMEQYYHLVDMELNCTVLQMDYSKNALALFVLPKEGQMESVEAAMSSKTLKKWNRLLQKGWVDLFVPKFSISATYDLGATLLKMGIQHAYSENADFSGLTEDNGLKLSNAAHKAVLHIGEKGTEAAAVPEVELSDQPENTFLHPIIQIDRSFMLLILERSTRSILFLGKVVNPTEA

How the values were obtained:
Experiment in all cases: Mass spectroscopy proteomics, semi-quantitative binding affinity of serum proteins (plaqueproteome, Table 2)
Conditions in all cases: higher number = stronger affinity
[1] = biological target: T1, Abeta-42 plaque particles (Homo sapiens, UniProt P05067)
T1 construct: Abeta 1-42
Summary of the method: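 AD patient serum or plasma (50% in PBS) was incubated with Abeta-42 aggregates (30 μg) for 1 h at 37 °C, then stained with Thioflavin S for 30 min. Labeled particles were FACS-sorted, trypsin/Lys-C digested overnight and analyzed by MS/MS. Sequest searched human UniProt; Scaffold/Protein Prophet validated the identifications.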

[2] = test system: High Density cholesterol (Chl Large) plaque particles; set-up: species or system human
Summary of the method: (§1)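 Read-out is MS/MS protein identification (Sequest, strict trypsin, 20 ppm parent tolerance; Scaffold probabilities) of serum proteins bound to flow-sorted cholesterol plaque particles. These particles formed when 50% atherosclerotic serum was incubated with 30 μg cholesterol aggregates for 1 hr at 37° C.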

[3] = test system: Low density cholesterol (Chl small) plaque particles; set-up: species or system human
Summary of the method: as §1

[4] = biological target: T2, alpha-synuclein plaque particles (Homo sapiens, UniProt P37840)
T2 construct: 140 amino acids polypeptide
Summary of the method: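 AD-subject plasma or serum (800 μL of 50%) mixed with 30 μg preformed alpha-synuclein aggregates for 1 h at 37 °C; Thioflavin S-positive particles isolated by flow sorting. After reduction, acrylamide alkylation and overnight tryptic digestion, serum proteins identified by MS/MS with Sequest and Scaffold.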

Tau plaque particles = test system: Tau plaque particles; set-up: species or system human
Summary of the method: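 Synthetic Tau-74 and Tau-275 peptides (1 mg/mL PBS, 37° C, 2 h) aggregated; 30 μg aggregates incubated with 50% serum/plasma 1 h at 37° C, stained with Thioflavin S, and plaque particles sorted by flow cytometry. Bound proteins trypsin-digested and identified by MS/MS against human UniProt.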

| Molecule | Semi-quantitative analysis of proteins binding to different plaque particles: Abeta-42 [1] | Semi-quantitative analysis of proteins binding to different plaque particles: Chl Large [2] | Semi-quantitative analysis of proteins binding to different plaque particles: Chl small [3] | Semi-quantitative analysis of proteins binding to different plaque particles: Synuclein [4] | Semi-quantitative analysis of proteins binding to different plaque particles: Tau (Tau plaque particles) |
| --- | --- | --- | --- | --- | --- |
| B1 | 0 | 4 | 1 | 2 | 5 |
| B2 | 0 | 1 | 1 | 2 | 2 |
| B3 | 0 | 0 | 1 | 1 | 0 |
| B4 | 2 | 1 | 1 | 2 | 1 |
| B5 | 5 | 0 | 0 | 0 | 0 |
| B6 | 11 | 12 | 14 | 10 | 11 |
| B7 | 0 | 0 | 1 | 0 | 0 |
| B8 | 0 | 0 | 0 | 1 | 2 |
| B9 | 2 | 0 | 1 | 0 | 1 |
